{"source": "paper PMC11046700", "about": "(Proceedings of the National Academy of Sciences of the …, 2024)", "proteins": {"B1": {"name": "mouse WT-APOA5 (mouse apolipoprotein AV with an N-terminal mouse albumin tag) (natural protein, UniProt Q8C7G5 21-368, looked up)", "chain": "RKSLWDYFSQNSWSKGVMGQPQKLAQENLKGSFEQDLYNMNNYLEKLGPLRGPGKEPPLLAQDPEGIRKQLQQELGEVSSRLEPYMAAKHQQVGWNLEGLRQQLKPYTAELMEQVGLSVQELQEQLRVVGEDTKAQLLGGVDEALNLLQDMQSRVLHHTDRVKELFHPYAERLVTGIGHHVQELHRSVAPHAAASPARLSRCVQTLSHKLTRKAKDLHTSIQRNLDQLRDELSAFIRVSTDGAEDGDSLDPQALSEEVRQRLQAFRHDTYLQIAAFTQAIDQETEEIQHQLAPPPPSHSAFAPELGHSDSNKALSRLQSRLDDLWEDIAYGLQDQGHSHLSDPEGHSG"}}, "molecular_target": "the molecule itself", "test": "SEC", "data": [{"protein": "B1", "values": [{"measurement": "stoichiometry N", "result": 2}]}]}
